Test results taken from US20210332138A1 (1GLOBE BIOMEDICAL, published 2021).

B1: full-length antibody 3-1E4 (antibody, human IgG1, V domains shown)
VH: QIQLVQSGAEVKKPGSSVKVSCKASGGTFSSYAISWVRQAPGQGLEWMGGIIPIFGTANYAQKFQGRVTITADKSTSTAYMELSSLRSEDTAVYYCAGGGAVADNSYWGQGTLVTVSS
VL: DIRMTQSPSSLSASVGDRVTITCRASQGIRNDLGWYQQKPGKAPKLLIYAASSLQSGVPSRFSGSGSGTDFTLTISSLQPEDFATYYCLQDYNYPRTFGQGTKVEIK
notes: Tested as a full-length antibody; the summary speaks of human IgG1
B2: full-length antibody 4-1E8 (antibody, human IgG1, V domains shown)
VH: QIQLVQSGAEVKMPGASVTISCEASGYNFISYYIHWVRQAPGQGLEWMGFVVPSGGAAGYTQKFQGRLTVTRDTSTSTVYMDLNSLTSDDTAVYYCVREMSGGWFDFWGQGTLVTVSS
VL: DIVMTQSPSSLSASVGDRVTITCRASQGIRNDLGWYQQKPGKAPKLLIYAASTLQSGVPSRFSGSGSGTDFTLTISSLQAEDVAVYYCQQYYSTPLTFGPGTKVDIK
notes: Tested as a full-length antibody made from the scFv's VH and VL in 293T cells; the summary speaks of a human IgG1 constant region, and ADCC activity is reported
B3: full-length antibody 3-1B11 (antibody, human IgG1, V domains shown)
VH: EVQLVESGGGLVQPGGSLRLSCAASGFTFSDYDMIWVRQAPGKGLEWVAVISYDGSNKYYADSVKGRFTISRDNSKNTLYLQMNSLRAEDTAVYYCAKEFFGAFDIWGQGTMVTVSS
VL: SSELTQDPAVSVALGQTVTITCQGDSLNYYYANWFQLKPGQAPVLVLFGKNNRPSGIPDRFSGSYSGSTASLTITGAQAEDDADYYCNSRDSGGNPWVFGGGTKLTVL
notes: as for B1

Experiments:
[1] = target: T1, Rhesus PDL1 (expression construct transiently transfected into 293T cells) (Rhesus, UniProt F6VEW6 19-290); assay: FACS on 293T cells transiently transfected with Rhesus PDL1
T1 construct: whole, on cells
Procedure: (B) 293T cells were transiently transfected with Rhesus PDL1 expression construct. Embodiments 4-1E8, 3-1E4 and 3-1B11 were tested and compared to control.

[2] = target: T2, Rhesus PDL1-GFP (expression construct transiently transfected into 293T cells) (Rhesus, UniProt F6VEW6 19-290); assay: FACS on 293T cells transiently transfected with Rhesus PDL1-GFP
T2 construct: whole, on cells; not shown: GFP fused to PDL1
Procedure: (A) 293T cells were transiently transfected with Rhesus PDL1-GFP expression construct. Embodiments 4-1E8, 3-1E4 and 3-1B11 were tested and compared to control.

T2 sequence (chain, as listed by the source): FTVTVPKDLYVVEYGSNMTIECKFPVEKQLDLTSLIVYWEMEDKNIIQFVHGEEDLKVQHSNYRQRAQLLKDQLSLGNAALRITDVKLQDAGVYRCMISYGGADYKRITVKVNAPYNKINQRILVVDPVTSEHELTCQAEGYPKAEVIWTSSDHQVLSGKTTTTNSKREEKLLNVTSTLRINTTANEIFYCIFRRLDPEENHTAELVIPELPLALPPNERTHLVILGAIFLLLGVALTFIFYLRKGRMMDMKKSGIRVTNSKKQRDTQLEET

| Binder | binding result [1] | binding result [2] |
| --- | --- | --- |
| B1 | binds | binds |
| B2 | binds | binds |
| B3 | binds | binds |
